Consider two molecules from publication doi:10.1101/2024.09.13.612636 (bioRxiv, 2024).

“And” between values parts separate entries of the source, which are not always exact repeats. Equal entries are not always repeated.

Assay [1] has as its target GST-LdPEX3Δ1-42 (L. donovani PEX3 without the N-terminal predicted transmembrane domain, GST-tagged) (Leishmania donovani). Nature of the assay: AlphaScreen or HTRF. (In general: Bead proximity is the source of the signal in Alpha formats.)
The target of assay [2] is T1, GST-LdPEX3Δ1-42 (L. donovani PEX3 without the N-terminal predicted transmembrane domain, GST-tagged) (Leishmania donovani, UniProt A0A3Q8IW98 43-526).
T1 sequence: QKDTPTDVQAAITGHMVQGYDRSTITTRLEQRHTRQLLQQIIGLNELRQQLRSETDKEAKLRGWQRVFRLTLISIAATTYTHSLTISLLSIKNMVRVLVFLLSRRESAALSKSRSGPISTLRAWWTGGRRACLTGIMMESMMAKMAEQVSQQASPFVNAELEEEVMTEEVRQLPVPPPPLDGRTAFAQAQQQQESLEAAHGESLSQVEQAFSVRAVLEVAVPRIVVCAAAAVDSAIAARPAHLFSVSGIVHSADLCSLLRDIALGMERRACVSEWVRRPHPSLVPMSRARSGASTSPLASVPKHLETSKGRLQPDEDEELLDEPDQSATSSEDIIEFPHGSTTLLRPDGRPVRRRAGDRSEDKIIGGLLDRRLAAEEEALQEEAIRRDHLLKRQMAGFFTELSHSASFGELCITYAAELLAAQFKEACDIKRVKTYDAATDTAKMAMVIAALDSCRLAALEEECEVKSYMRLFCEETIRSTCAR
The assay can be described thus: ELISA. For orientation: An ELISA detects its analyte on a solid surface through an enzyme-linked reagent.

Assay [3] has as its target T1, GST-LdPEX3Δ1-42 (L. donovani PEX3 …). Nature of the assay: AlphaScreen or HTRF.

In the case of “Tag-free LdPEX19 (from LdPEX19-T-His6 by thrombin cleavage) (natural protein)”, the Kd (commonly a measure of binding affinity in units of concentration) in assay [1] was 11.9 nM.

B1: LdPEX19-His6 (C-terminally His6-tagged full-length L. donovani PEX19, pET21b) (natural protein)
chain: MSDDDLDALLDEAMDMVDEQERKHEEEVRVRDAKLEDDLQKALDEASGTAGGDADMMKMLMSMLGGDSADDASLDSFKKSVMTMVSSLEGEENLGEEDKANLLRVKELMRVMEEEDIDKANDLLEQMKQEGKLPDCNNVGDAEIDEASRRCMEMLQQLSSATQVGHLDPAATPGAASSSSAAPPAAPAGDGAEIPSEVGRATEAMASALISTLADPQFVEPIKLMRDSYGPYMDAHGSELSHEDCERYERQRAKAQEICDLLQNPISGAEDPRLIQLLELMNKYSELGDPPRNLVKYAPKNRKGVEECQ
For the molecule B1, the Kd in assay [2] was 10.6 nM and 10.5 nM; in assay [3], 10.4 ± 2.57 nM.
